Measurements as given in patent US20250283886A1.

Biological target: polypeptides with a terminal leucine residue
Test: single-molecule dwell time analysis, distribution of mean pulse durations, Leu; filtered 0.00s≤dur≤20.00s and magnitude above baseline > 15.0

B1: S. elongatus ClpS2 (protein)
chain: MSPQPDESVLSILGVPRPCVKKRSRNDAFVLTVLTCSLQAIAAPATAPGTTTTRVRQPYPHFRVIVLDDDVNTFQHVAECLLKYIPGMTGDRAWDLTNQVHYEGAATVWSGPQEQAELYHEQLRREGLTMAPLEAA
**Q.** Which mean pulse duration (value at the dashed line) does the source give for B1 here?
**A.** Its mean pulse duration (value at the dashed line) is 0.35 s.
